Test results taken from publication PMC6403256, “ABHD5 blunts the sensitivity of colorectal cancer to fluorouracil via promoting autophagic uracil yield” (Nature Communications, 2019).

Key:
Conditions in all cases: both partners purified
[1] = target: T1, PDIA5 on the HuProt human protein chip (human, UniProt Q14554 22-519); assay: peptide or protein array; human ABHD5 recombinant protein used to probe the HuProt human protein chip
T1 construct: PDIA5, human, as spotted on the HuProt human protein chip; source: spotted on the HuProt human protein chip
T1 sequence (looked up): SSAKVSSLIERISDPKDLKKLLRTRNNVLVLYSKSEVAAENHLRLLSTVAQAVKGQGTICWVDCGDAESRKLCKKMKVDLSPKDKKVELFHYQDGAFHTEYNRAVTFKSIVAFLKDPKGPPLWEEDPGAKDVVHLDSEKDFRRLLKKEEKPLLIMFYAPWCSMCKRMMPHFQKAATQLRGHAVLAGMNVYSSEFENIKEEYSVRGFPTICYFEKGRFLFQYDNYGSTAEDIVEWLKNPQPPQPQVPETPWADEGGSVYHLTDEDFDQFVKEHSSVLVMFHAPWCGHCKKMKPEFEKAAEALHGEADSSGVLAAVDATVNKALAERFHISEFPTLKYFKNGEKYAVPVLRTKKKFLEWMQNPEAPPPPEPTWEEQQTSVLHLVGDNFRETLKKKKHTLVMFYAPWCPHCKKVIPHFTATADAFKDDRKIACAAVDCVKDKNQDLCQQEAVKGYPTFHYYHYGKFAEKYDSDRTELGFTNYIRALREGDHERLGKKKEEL

[2] = target: T2, GST-tagged wild type PDIA5 (human, UniProt Q14554 22-519); assay: pull-down; Ni-NTA bead pull-down: 50 ug GST, GST-PDIA5 or mutant GST-PDIA5 with 50 ug immobilized His-ABHD5 or His-RNASET2; 20 mM Tris pH 8.0, 100 mM NaCl, 0.2% Triton X-100; 4 C, 4 h; eluates blotted with anti-GST
T2 construct: PDIA5, human, wild type; also called GST-PDIA5; wild type PDIA5 (W); source: expressed and purified; recombinant protein from Wuhan GeneCreate Biological Engineering Co., Ltd
T2 sequence (looked up): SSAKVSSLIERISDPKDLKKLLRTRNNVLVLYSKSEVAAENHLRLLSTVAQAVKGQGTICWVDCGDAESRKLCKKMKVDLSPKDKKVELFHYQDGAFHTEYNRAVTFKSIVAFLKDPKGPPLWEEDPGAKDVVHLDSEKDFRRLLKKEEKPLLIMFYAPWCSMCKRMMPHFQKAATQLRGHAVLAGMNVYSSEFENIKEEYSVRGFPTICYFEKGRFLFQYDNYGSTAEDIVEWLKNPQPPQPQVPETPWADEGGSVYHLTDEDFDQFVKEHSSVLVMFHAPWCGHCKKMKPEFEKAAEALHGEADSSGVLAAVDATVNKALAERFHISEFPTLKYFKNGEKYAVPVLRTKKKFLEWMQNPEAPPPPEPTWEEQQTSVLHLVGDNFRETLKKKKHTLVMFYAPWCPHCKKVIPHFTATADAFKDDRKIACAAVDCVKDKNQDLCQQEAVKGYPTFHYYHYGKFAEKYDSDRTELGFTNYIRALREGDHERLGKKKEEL

His-PDIA5 = target: T3, His-PDIA5 (human, UniProt Q14554 22-519); assay: pull-down; competitive binding: 50 ug GST-RNASET2 mixed with 0, 50, 100, 200 ug GST-ABHD5, incubated with 50 ug immobilized His-PDIA5 at 4 C for 4 h; detected by blot
T3 construct: PDIA5, human, wild type; source: recombinant protein from Wuhan GeneCreate Biological Engineering Co., Ltd
T3 sequence (looked up): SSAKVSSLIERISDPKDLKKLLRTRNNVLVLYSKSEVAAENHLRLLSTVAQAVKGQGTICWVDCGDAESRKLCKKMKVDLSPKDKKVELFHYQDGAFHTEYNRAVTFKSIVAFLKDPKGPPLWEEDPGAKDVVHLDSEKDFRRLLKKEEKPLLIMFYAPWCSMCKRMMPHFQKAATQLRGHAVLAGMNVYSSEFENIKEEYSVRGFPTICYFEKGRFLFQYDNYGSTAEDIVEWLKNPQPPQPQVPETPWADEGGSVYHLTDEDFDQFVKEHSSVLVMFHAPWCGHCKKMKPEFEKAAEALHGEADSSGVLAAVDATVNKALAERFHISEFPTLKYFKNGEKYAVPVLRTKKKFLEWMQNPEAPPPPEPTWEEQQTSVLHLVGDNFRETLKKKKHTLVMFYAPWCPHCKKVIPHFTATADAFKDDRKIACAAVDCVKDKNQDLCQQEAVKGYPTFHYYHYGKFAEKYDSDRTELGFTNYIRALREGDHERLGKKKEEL

B1: human ABHD5 recombinant protein (probe on the HuProt chip) (natural protein, UniProt Q8WTS1 1-349, looked up)
chain: MAAEEEEVDSADTGERSGWLTGWLPTWCPTSISHLKEAEEKMLKCVPCTYKKEPVRISNGNKIWTLKFSHNISNKTPLVLLHGFGGGLGLWALNFGDLCTNRPVYAFDLLGFGRSSRPRFDSDAEEVENQFVESIEEWRCALGLDKMILLGHNLGGFLAAAYSLKYPSRVNHLILVEPWGFPERPDLADQDRPIPVWIRALGAALTPFNPLAGLRIAGPFGLSLVQRLRPDFKRKYSSMFEDDTVTEYIYHCNVQTPSGETAFKNMTIPYGWAKRPMLQRIGKMHPDIPVSVIFGARSCIDGNSGTSIQSLRPHSYVKTIAILGAGHYVYADQPEEFNQKVKEICDTVD
notes: ABHD5, human, recombinant protein used to probe the HuProt human protein chip; The methods list two recombinant ABHD5 proteins: His-ABHD5 (Wuhan GeneCreate) and ABHD5 (Human) recombinant protein H00051099-P01 (Novus)
binding result [1]: binds

B2: His-tagged full-length ABHD5 (natural protein, human, UniProt Q8WTS1 1-349, looked up)
chain: MAAEEEEVDSADTGERSGWLTGWLPTWCPTSISHLKEAEEKMLKCVPCTYKKEPVRISNGNKIWTLKFSHNISNKTPLVLLHGFGGGLGLWALNFGDLCTNRPVYAFDLLGFGRSSRPRFDSDAEEVENQFVESIEEWRCALGLDKMILLGHNLGGFLAAAYSLKYPSRVNHLILVEPWGFPERPDLADQDRPIPVWIRALGAALTPFNPLAGLRIAGPFGLSLVQRLRPDFKRKYSSMFEDDTVTEYIYHCNVQTPSGETAFKNMTIPYGWAKRPMLQRIGKMHPDIPVSVIFGARSCIDGNSGTSIQSLRPHSYVKTIAILGAGHYVYADQPEEFNQKVKEICDTVD
notes: ABHD5, human, wild type, full length; also called His-ABHD5; source: recombinant protein from Wuhan GeneCreate Biological Engineering Co., Ltd
binding result [2]: binds

B3: GST-ABHD5 (natural protein, human, UniProt Q8WTS1 1-349, looked up)
chain: MAAEEEEVDSADTGERSGWLTGWLPTWCPTSISHLKEAEEKMLKCVPCTYKKEPVRISNGNKIWTLKFSHNISNKTPLVLLHGFGGGLGLWALNFGDLCTNRPVYAFDLLGFGRSSRPRFDSDAEEVENQFVESIEEWRCALGLDKMILLGHNLGGFLAAAYSLKYPSRVNHLILVEPWGFPERPDLADQDRPIPVWIRALGAALTPFNPLAGLRIAGPFGLSLVQRLRPDFKRKYSSMFEDDTVTEYIYHCNVQTPSGETAFKNMTIPYGWAKRPMLQRIGKMHPDIPVSVIFGARSCIDGNSGTSIQSLRPHSYVKTIAILGAGHYVYADQPEEFNQKVKEICDTVD
notes: ABHD5, human
binding result (His-PDIA5): binds
